Marks after values point to notes of the source that are not given here.
B1: GST-PLIP (recombinant murine PLIP fusion protein with N-terminal GST and 6-His tags) (protein)
chain: MAASAWLEAGLARVLFYPTLLYTVFRGRVRGPAHRDWYHRIDHTVLLGALPLKNMTRRLVLDENVRGVITMNEEYETRFLCNTSKEWKKAGVEQLRLSTVDMTGVPTLANLHKGVQFALKYQALGQCVYVHCKAGRSRSATMVAAYLIQVHNWSPEEAIEAIAKIRSHISIRPSQLEVLKEFHKEITARAAKN
B2: TC-PTP (protein)
chain: MPTTIEREFEELDTQRRWQPLYLEIRNESHDYPHRVAKFPENRNRNRYRDVSPYDHSRVKLQNAENDYINASLVDIEEAQRSYILTQGPLPNTCCHFWLMVWQQKTKAVVMLNRIVEKESVKCAQYWPTDDQEMLFKETGFSVKLLSEDVKSYYTVHLLQLENINSGETRTISHFHYTTWPDFGVPESPASFLNFLFKVRESGSLNPDHGPAVIHCSAGIGRSGTFSLVDTCLVLMEKGDDINIKQVLLNMRKYRMGLIQTPDQLRFSYMAIIEGAKCIKGDSSIQKRWKELSKEDLSPAFDHSPNKIMTEKYN
B3: VHR (protein)
chain: MSGSFELSVQDLNDLLSDGSGCYSLPSQPCNEVTPRIYVGNASVAQDIPKLQKLGITHVLNAAEGRSFMHVNTNANFYKDSGITYLGIKANDTQEFNLSAYFERAADFIDQALAQKNGRVLVHCREGYSRSPTLVIAYLMMRQKMDVKSALSIVRQNREIGPNDGFLAQLCQLNDRLAKEGKLKP

Target: Casein Ser(P)

Q: B1 was tested. Which “Phosphatase activity (mole of phosphate released/min/mol of enzyme)” value did it give?
A: The value was ~0.0^b.

Q: And the Phosphatase activity (mole of phosphate released/min/mol of enzyme) (mol/(min mol))?
A: The Phosphatase activity (mole of phosphate released/min/mol of enzyme) (mol/(min mol)) was 0.2.

Q: What does the source list for B2?
A: Phosphatase activity (mole of phosphate released/min/mol of enzyme): ~0.0^b; Phosphatase activity (mole of phosphate released/min/mol of enzyme) (mol/(min mol)): 1440

Q: What does the source list for B3?
A: Phosphatase activity (mole of phosphate released/min/mol of enzyme): ~0.0^b; Phosphatase activity (mole of phosphate released/min/mol of enzyme) (mol/(min mol)): 1.8

Target: MyBP Ser(P)/Tyr(P)
Sequence (P02686 whole entry): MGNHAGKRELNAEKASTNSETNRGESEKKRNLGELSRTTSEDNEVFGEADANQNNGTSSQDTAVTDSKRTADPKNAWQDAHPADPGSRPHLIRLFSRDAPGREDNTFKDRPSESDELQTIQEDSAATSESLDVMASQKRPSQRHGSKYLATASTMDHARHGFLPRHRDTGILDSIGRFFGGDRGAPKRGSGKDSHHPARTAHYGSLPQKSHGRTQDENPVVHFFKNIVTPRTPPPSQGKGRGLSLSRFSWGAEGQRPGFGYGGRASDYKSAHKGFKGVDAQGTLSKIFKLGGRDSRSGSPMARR

Q: Which “Phosphatase activity (mole of phosphate released/min/mol of enzyme)” value does the source give for B1 here?
A: The value was ~0.0^b.

Q: For B2, which “Phosphatase activity (mole of phosphate released/min/mol of enzyme)” value is on record?
A: The value was ~0.0^b.

Q: Which “Phosphatase activity (mole of phosphate released/min/mol of enzyme)” value does the source give for B3 here?
A: The value was ~0.0^b.

Target: MyBP Tyr(P)
Sequence (P02686 whole entry): as above

Q: With B1 as the protein, how does the Phosphatase activity (mole of phosphate released/min/mol of enzyme) (mol/(min mol)) read?
A: Its Phosphatase activity (mole of phosphate released/min/mol of enzyme) (mol/(min mol)) is 0.1.

Q: For B2, which Phosphatase activity (mole of phosphate released/min/mol of enzyme) (mol/(min mol)) is on record?
A: Its Phosphatase activity (mole of phosphate released/min/mol of enzyme) (mol/(min mol)) is 195.

Q: With B3 as the protein, how does the Phosphatase activity (mole of phosphate released/min/mol of enzyme) (mol/(min mol)) read?
A: Its Phosphatase activity (mole of phosphate released/min/mol of enzyme) (mol/(min mol)) is 0.5.
